This passage reports Kd results from article PMC6978347.

One may read the Kd as the constant that tells how readily two partners part at equilibrium.

Assay [1] deals with polymerization-deficient p62^1–102 (D69A/D73A) (human) (UniProt Q13501). In words: ITC; VP-ITC, 25 °C, 10 mM HEPES pH 7.5, 150 mM NaCl; p62 D69A/D73A in the cell (5–20 μM), partner PB1 domain in the syringe (25–100 μM); one-site model; mean of three measurements.
A further assay has as its target p62 PB1 (Homo sapiens) (UniProt Q13501). The settings on record: cited from earlier work.

In assay [1], “NBR1^1–85 (human NBR1–PB1) (from UniProt Q14596 1-85) (domain or fragment)” yielded a Kd of 12.6 nM.

Consider p62 PB1 (from UniProt Q13501), for which the Kd with p62 PB1 (Homo sapiens) is 6 nM.

Take “PKCζ^11–101 (pKCζ–PB1) (from UniProt Q05513 11-101) (domain or fragment)”: in assay [1], the Kd was found to be 8.9 nM.
